Laboratory results: patent US10662235B2, “Cysteine engineered fibronectin type III domain binding molecules” (Janssen Biotech, Inc., priority 2016, dated 2020)

Tests used:
[1] = test system: H292-HGF tumor xenografts; test: Tumor efficacy study with bispecific EGFR/c-Met molecules (tumor growth inhibition); format: in vivo, SCID Beige mice; conditions: 25 mg/kg three times per week (FIG. 10)
Protocol: One week after implantation, mice were stratified into groups with equivalent tumor volumes (mean tumor volume=77.9+/−1.7 mm^3). Mice were dosed three times per week with the bispecific molecules and tumor volumes were recorded twice weekly.

[2] = Thermal stability by differential scanning calorimetry; format: physicochemical; conditions: cysteine-NEM conjugates; for First Scan Tm: DSC 25-100° C., 1° C. per minute; for Second Scan Tm: second identical scan
Protocol: The thermal stability of cysteine-NEM conjugates was assessed by differential scanning calorimetry (DSC). The only the conjugates tested were those determined to express at high levels, conjugate efficiently, and retain EGFR binding. Additionally, cysteine variants within the BC and FG loops were excluded. Stability data was generated by heating a 400 μL aliquot of the variant from 25° C. to 100° C. at a scan rate of 1° C. per minute in a VP-DSC instrument (MicroCal). A second identical scan was completed on the sample in order to assess the reversibility of thermal folding/unfolding. Data was fitted to a 2-state unfolding model in order to calculate the melting temperature (Table 10).
Thermal Stability of c-Met-Binding FN3 Domains Differential scanning calorimetry in PBS was used to assess the stability of each FN3 domain.

H1573 cells = test: Cytotoxicity assay of cytotoxin conjugates in H1573 cells; format: cell-based, human; conditions: MMAF conjugates, Cell TiterGlo at 70 hours, read-out: IC50 (cell killing)
Protocol: Cell killing was assessed by measuring viability of the EGFR-overexpressing human tumor cell line H1573 following exposure to the cysteine variant-cytotoxin conjugates. […] Cells were allowed to attach overnight at 37° C. in a humidified 5% CO2 atmosphere. Medium was aspirated from 96-well plate and cells were treated with 50 uL of fresh media and 50 uL of 2× inhibitor made up in fresh media. Cell viability was determined by an endpoint assay with Cell TiterGlo (Promega) at 70 hours. IC50 values were determined by fitting data to the equation for a sigmoidal dose response with variable slope using GraphPad Prism 5 (GraphPad Software).
Conjugates consisting of ECB147 cysteine variants, 83v2-cys, or Tencon-cys linked to a cytotoxic tubulin inhibitor from the auristatin family (FIG. 2) were tested for target-dependent cytotoxicity in cancer cells. The inhibitor was linked to the cysteine-containing protein via a non-cleavable PEG4 linker or an enzyme-cleavable valine-citrulline or valine-lysine linker.

[3] = Analytical size exclusion chromatography (aggregation state, percent monomer); format: physicochemical; conditions: NEM-conjugated cysteine variants; SEC, Abs280
Protocol: Size exclusion chromatography was used to determine the aggregation state of the FN3 domains binding EGFR. Aliquots (10 μL) of each purified FN3 domain were injected onto a Superdex 75 5/150 column (GE Healthcare) at a flow rate of 0.3 mL/min in a mobile phase of PBS pH 7.4. Elution from the column was monitored by absorbance at 280 nm.
The percent monomer for each protein was determined by integrating the Abs280 signal and comparing the peak in the monomer region (5.5-6 minutes) to the peaks in the oligomer region (4-5.3 minutes).

| Molecule | tumor growth inhibition (TGI) [1] | First Scan Tm [2] | Second Scan Tm [2] | IC50 (H1573 cells) | Percent monomer [3] |
| --- | --- | --- | --- | --- | --- |
| ECB18: bispecific P54AR4-83v2 / P114AR5P74-A5 linked to albumin binding domain, SEQ ID 118 (protein, Bispecific EGFR/c-Met binding molecule) MLPAPKNLVVSEVTEDSARLSWDDPWAFYESFLIQYQESEKVGEAIVLTVPGSERSYDLTGLKPGTEYTVSIYGVHNVYKDTNMRGLPLSAIFTTAPAPAPAPAPLPAPKNLVVSRVTEDSARLSWTAPDAAFDSFWIRYDEVVVGGEAIVLTVPGSERSYDLTGLKPGTEYYVNILGVKGGSISVPLSAIFTTAPAPAPAPAPLAEAKVLANRELDKYGVSDYYKNLINNAKTVEGVKALLDEILAALP | delay in tumor growth |  |  |  |  |
| S16C (protein, EGFR binding FN3 domain; EGFR-binding FN3 domain) chain 1: MLPAPKNLVVSEVTEDCARLSWDDPWAFYESFLIQYQESEKVGEAIVLTVPGSERSYDLTGLKPGTEYTVSIYGVHNVYKDTNMRGLPLSAIFTT chain 2: LPAPKNLVVSEVTEDCARLSWDDPWAFYESFLIQYQESEKVGEAIVLTVPGSERSYDLTGLKPGTEYTVSIYGVHNVYKDTNMRGLPLSAIFTT |  | 68 °C | 68 °C | 0.75 nM | 75% |
| S89C (protein, EGFR binding FN3 domain; EGFR-binding FN3 domain) chain 1: MLPAPKNLVVSEVTEDSARLSWDDPWAFYESFLIQYQESEKVGEAIVLTVPGSERSYDLTGLKPGTEYTVSIYGVHNVYKDTNMRGLPLCAIFTT chain 2: LPAPKNLVVSEVTEDSARLSWDDPWAFYESFLIQYQESEKVGEAIVLTVPGSERSYDLTGLKPGTEYTVSIYGVHNVYKDTNMRGLPLCAIFTT |  | 72 °C | 71 °C | 0.94 nM | 96% |
| S30C (protein, EGFR binding FN3 domain; EGFR-binding FN3 domain) chain 1: MLPAPKNLVVSEVTEDSARLSWDDPWAFYECFLIQYQESEKVGEAIVLTVPGSERSYDLTGLKPGTEYTVSIYGVHNVYKDTNMRGLPLSAIFTT chain 2: LPAPKNLVVSEVTEDSARLSWDDPWAFYECFLIQYQESEKVGEAIVLTVPGSERSYDLTGLKPGTEYTVSIYGVHNVYKDTNMRGLPLSAIFTT |  | 71 °C | 71 °C | 0.78 nM | 94% |
| S38C (protein, EGFR binding FN3 domain; EGFR-binding FN3 domain) chain 1: MLPAPKNLVVSEVTEDSARLSWDDPWAFYESFLIQYQECEKVGEAIVLTVPGSERSYDLTGLKPGTEYTVSIYGVHNVYKDTNMRGLPLSAIFTT chain 2: LPAPKNLVVSEVTEDSARLSWDDPWAFYESFLIQYQECEKVGEAIVLTVPGSERSYDLTGLKPGTEYTVSIYGVHNVYKDTNMRGLPLSAIFTT |  | 65 °C | 65 °C | 0.76 nM | 93% |
| S20C (protein, EGFR binding FN3 domain; EGFR-binding FN3 domain) chain 1: MLPAPKNLVVSEVTEDSARLCWDDPWAFYESFLIQYQESEKVGEAIVLTVPGSERSYDLTGLKPGTEYTVSIYGVHNVYKDTNMRGLPLSAIFTT chain 2: LPAPKNLVVSEVTEDSARLCWDDPWAFYESFLIQYQESEKVGEAIVLTVPGSERSYDLTGLKPGTEYTVSIYGVHNVYKDTNMRGLPLSAIFTT |  | 70 °C | 70 °C | 0.36 nM | 94% |
| V41C (protein, EGFR binding FN3 domain; EGFR-binding FN3 domain) chain 1: MLPAPKNLVVSEVTEDSARLSWDDPWAFYESFLIQYQESEKCGEAIVLTVPGSERSYDLTGLKPGTEYTVSIYGVHNVYKDTNMRGLPLSAIFTT chain 2: LPAPKNLVVSEVTEDSARLSWDDPWAFYESFLIQYQESEKCGEAIVLTVPGSERSYDLTGLKPGTEYTVSIYGVHNVYKDTNMRGLPLSAIFTT |  | 71 °C | 71 °C | 1.13 nM | 98% |
| T59C (protein, EGFR binding FN3 domain; EGFR-binding FN3 domain) chain 1: MLPAPKNLVVSEVTEDSARLSWDDPWAFYESFLIQYQESEKVGEAIVLTVPGSERSYDLCGLKPGTEYTVSIYGVHNVYKDTNMRGLPLSAIFTT chain 2: LPAPKNLVVSEVTEDSARLSWDDPWAFYESFLIQYQESEKVGEAIVLTVPGSERSYDLCGLKPGTEYTVSIYGVHNVYKDTNMRGLPLSAIFTT |  | 67 °C | 67 °C | 0.44 nM | 100% |
| T48C (protein, EGFR binding FN3 domain; EGFR-binding FN3 domain) chain 1: MLPAPKNLVVSEVTEDSARLSWDDPWAFYESFLIQYQESEKVGEAIVLCVPGSERSYDLTGLKPGTEYTVSIYGVHNVYKDTNMRGLPLSAIFTT chain 2: LPAPKNLVVSEVTEDSARLSWDDPWAFYESFLIQYQESEKVGEAIVLCVPGSERSYDLTGLKPGTEYTVSIYGVHNVYKDTNMRGLPLSAIFTT |  | 72 °C | 72 °C | 0.59 nM | 90% |
| R54C (protein, EGFR binding FN3 domain; EGFR-binding FN3 domain) chain 1: MLPAPKNLVVSEVTEDSARLSWDDPWAFYESFLIQYQESEKVGEAIVLTVPGSECSYDLTGLKPGTEYTVSIYGVHNVYKDTNMRGLPLSAIFTT chain 2: LPAPKNLVVSEVTEDSARLSWDDPWAFYESFLIQYQESEKVGEAIVLTVPGSECSYDLTGLKPGTEYTVSIYGVHNVYKDTNMRGLPLSAIFTT |  | 65 °C | 65 °C | 0.37 nM | 96% |
| S70C (protein, EGFR binding FN3 domain; EGFR-binding FN3 domain) chain 1: MLPAPKNLVVSEVTEDSARLSWDDPWAFYESFLIQYQESEKVGEAIVLTVPGSERSYDLTGLKPGTEYTVCIYGVHNVYKDTNMRGLPLSAIFTT chain 2: LPAPKNLVVSEVTEDSARLSWDDPWAFYESFLIQYQESEKVGEAIVLTVPGSERSYDLTGLKPGTEYTVCIYGVHNVYKDTNMRGLPLSAIFTT |  | 73 °C | 72 °C | 1.14 nM | 100% |
| I91C (protein) LPAPKNLVVSEVTEDSARLSWDDPWAFYESFLIQYQESEKVGEAIVLTVPGSERSYDLTGLKPGTEYTVSIYGVHNVYKDTNMRGLPLSACFTT |  | 70 °C | 69 °C | 0.54 nM | 100% |
